Measured values taken from IntAct's records for PubMed 20462492.

B1: Pre-mRNA-processing factor 19 (Saccharomyces cerevisiae), P32523 (parent)
chain: MLCAISGKVPRRPVLSPKSRTIFEKSLLEQYVKDTGNDPITNEPLSIEEIVEIVPSAQQASLTESTNSATLKANYSIPNLLTSLQNEWDAIMLENFKLRSTLDSLTKKLSTVMYERDAAKLVAAQLLMEKNEDSKDLPKSSQQAVAITREEFLQGLLQSSRDFVARGKLKAPKWPILKNLELLQAQNYSRNIKTFPYKELNKSMYYDKWVCMCRCEDGALHFTQLKDSKTITTITTPNPRTGGEHPAIISRGPCNRLLLLYPGNQITILDSKTNKVLREIEVDSANEIIYMYGHNEVNTEYFIWADNRGTIGFQSYEDDSQYIVHSAKSDVEYSSGVLHKDSLLLALYSPDGILDVYNLSSPDQASSRFPVDEEAKIKEVKFADNGYWMVVECDQTVVCFDLRKDVGTLAYPTYTIPEFKTGTVTYDIDDSGKNMIAYSNESNSLTIYKFDKKTKNWTKDEESALCLQSDTADFTDMDVVCGDGGIAAILKTNDSFNIVALTP
partner: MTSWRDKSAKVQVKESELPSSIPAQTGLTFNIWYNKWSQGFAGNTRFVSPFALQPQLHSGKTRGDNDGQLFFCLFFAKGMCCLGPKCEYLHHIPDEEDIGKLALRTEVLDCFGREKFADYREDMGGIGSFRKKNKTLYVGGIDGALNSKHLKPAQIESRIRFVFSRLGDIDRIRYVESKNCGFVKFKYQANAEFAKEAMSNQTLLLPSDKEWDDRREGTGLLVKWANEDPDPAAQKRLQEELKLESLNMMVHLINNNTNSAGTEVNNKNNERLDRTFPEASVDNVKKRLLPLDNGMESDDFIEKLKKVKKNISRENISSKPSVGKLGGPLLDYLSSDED

Variants of: B1
Details: with cwc2_yeast CWC2, Q12046

| Variant | effect of a mutation on the interaction |
| --- | --- |
| MLCAISGKVPRRPVLSPKSRTIFEKSLLEQYVKDTGNDPITNEPLSIEEIVEIVPSAQQASLTESTNSATLKANYSIPNLLTSLQNEWDAIMLENFKLRSTLDSLTKKLSTVMYERDAAKLVAAQLLMEKNEDSKDLPKSSQQAVAITREEFLQGLLQSSRDFVARGKLKAPKWPILKNLELLQAQNYSRNIKTFPYKELNKSMYYDKWVCMCRCEDGALHFTQLKDSKTITTITTPNPRTGGEHPAIISRGPCNRLLLLYPGNQITILDSKTNKVLREIEVDSANEIIYMYGHNEVNTEYFIWADNRGTIGFQSYEDDSQYIVHSAKSDVEYSSGVLHKDSLLLALYSPDGILDVYNLSSPDQASSRFPVDEEAKIKEVKFADNGYWMVVECDQTVVCFDLAADVGTLAYPTYTIPEFKTGTVTYDIDDSGKNMIAYSNESNSLTIYKFDKKTKNWTKDEESALCLQSDTADFTDMDVVCGDGGIAAILKTNDSFNIVALTP [R403A;K404A] | disrupting interaction |
| MLCAISGKVPRRPVLSPKSRTIFEKSLLEQYVKDTGNDPITNEPLSIEEIVEIVPSAQQASLTESTNSATLKANYSIPNLLTSLQNEWDAIMLENFKLRSTLDSLTKKLSTVMYERDAAKLVAAQLLMEKNEDSKDLPKSSQQAVAITREEFLQGLLQSSRDFVARGKLKAPKWPILKNLELLQAQNYSRNIKTFPYKELNKSMYYDKWVCMCRCEDGALHFTQLKDSKTITTITTPNPRTGGEHPAIISRGPCNRLLLLYPGNQITILDSKTNKVLREIEVDSANEIIYMYGHNEVNTEYFIWADNRGTIGFQSYEDDSQYIVHSAKSDVEYSSGVLHKDSLLLALYSPDGILDVYNLSSPDQASSRFPVDEEAKIKEVKFADNGAWMVVECDQTVVCFDLRKDVGTLAYPTYTIPEFKTGTVTYDIDDSGKNMIAYSNESNSLTIYKFDKKTKNWTKDEESALCLQSDTADFTDMDVVCGDGGIAAILKTNDSFNIVALTP [Y387A] | decreasing interaction |
| MLCAISGKVPRRPVLSPKSRTIFEKSLLEQYVKDTGNDPITNEPLSIEEIVEIVPSAQQASLTESTNSATLKANYSIPNLLTSLQNEWDAIMLENFKLRSTLDSLTKKLSTVMYERDAAKLVAAQLLMEKNEDSKDLPKSSQQAVAITREEFLQGLLQSSRDFVARGKLKAPKWPILKNLELLQAQNYSRNIKTFPYKELNKSMYYDKWVCMCRCEDGALHFTQLKDSKTITTITTPNPRTGGEHPAIISRGPCNRLLLLYPGNQITILDSKTNKVLREIEVDSANEIIYMYGHNEVNTEYFIWADNRGTIGFQSYEDDSQYIVHSAKSDVEYSSGVLHKDSLLLALYSPDGILDVYNLSSPDQASSRFPVDEEAKIKEVKFADNGYWMVVECDQTVVCFDLRADVGTLAYPTYTIPEFKTGTVTYDIDDSGKNMIAYSNESNSLTIYKFDKKTKNWTKDEESALCLQSDTADFTDMDVVCGDGGIAAILKTNDSFNIVALTP [K404A] | decreasing interaction |
| MLCAISGKVPRRPVLSPKSRTIFEKSLLEQYVKDTGNDPITNEPLSIEEIVEIVPSAQQASLTESTNSATLKANYSIPNLLTSLQNEWDAIMLENFKLRSTLDSLTKKLSTVMYERDAAKLVAAQLLMEKNEDSKDLPKSSQQAVAITREEFLQGLLQSSRDFVARGKLKAPKWPILKNLELLQAQNYSRNIKTFPYKELNKSMYYDKWVCMCRCEDGALHFTQLKDSKTITTITTPNPRTGGEHPAIISRGPCNRLLLLYPGNQITILDSKTNKVLREIEVDSANEIIYMYGHNEVNTEYFIWADNRGTIGFQSYEDDSQYIVHSAKSDVEYSSGVLHKDSLLLALYSPDGILDVYNLSSPDQASSRFPVDEEAKIKEVKFADNGYWMVVECDQTVVCFDLAKDVGTLAYPTYTIPEFKTGTVTYDIDDSGKNMIAYSNESNSLTIYKFDKKTKNWTKDEESALCLQSDTADFTDMDVVCGDGGIAAILKTNDSFNIVALTP [R403A] | disrupting interaction |
| MLCAISGKVPRRPVLSPKSRTIFEKSLLEQYVKDTGNDPITNEPLSIEEIVEIVPSAQQASLTESTNSATLKANYSIPNLLTSLQNEWDAIMLENFKLRSTLDSLTKKLSTVMYERDAAKLVAAQLLMEKNEDSKDLPKSSQQAVAITREEFLQGLLQSSRDFVARGKLKAPKWPILKNLELLQAQNYSRNIKTFPYKELNKSMYYDKWVCMCRCEDGALHFTQLKDSKTITTITTPNPRTGGEHPAIISRGPCNRLLLLYPGNQITILDSKTNKVLREIEVDSANEIIYMYGHNEVNTEYFIWADNRGTIGFQSYEDDSQYIVHSAKSDVEYSSGVLHKASLLLALYSPDGILDVYNLSSPDQASSRFPVDEEAKIKEVKFADNGYWMVVECDQTVVCFDLRKDVGTLAYPTYTIPEFKTGTVTYDIDDSGKNMIAYSNESNSLTIYKFDKKTKNWTKDEESALCLQSDTADFTDMDVVCGDGGIAAILKTNDSFNIVALTP [D341A] | decreasing interaction |
